For 1 molecule, IC50 results are on record in patent US20070202045A1 (published 2007).

As usually defined, the IC50 is the concentration needed to halve the response being measured. The low end stands for greater potency in that assay, the high end for weaker potency in that assay.

Bridges are numbered along the chain shown (N, C = ends).

This test has as its target T1, rabbit albumin (rabbit, UniProt P49065 25-608).
T1 chain: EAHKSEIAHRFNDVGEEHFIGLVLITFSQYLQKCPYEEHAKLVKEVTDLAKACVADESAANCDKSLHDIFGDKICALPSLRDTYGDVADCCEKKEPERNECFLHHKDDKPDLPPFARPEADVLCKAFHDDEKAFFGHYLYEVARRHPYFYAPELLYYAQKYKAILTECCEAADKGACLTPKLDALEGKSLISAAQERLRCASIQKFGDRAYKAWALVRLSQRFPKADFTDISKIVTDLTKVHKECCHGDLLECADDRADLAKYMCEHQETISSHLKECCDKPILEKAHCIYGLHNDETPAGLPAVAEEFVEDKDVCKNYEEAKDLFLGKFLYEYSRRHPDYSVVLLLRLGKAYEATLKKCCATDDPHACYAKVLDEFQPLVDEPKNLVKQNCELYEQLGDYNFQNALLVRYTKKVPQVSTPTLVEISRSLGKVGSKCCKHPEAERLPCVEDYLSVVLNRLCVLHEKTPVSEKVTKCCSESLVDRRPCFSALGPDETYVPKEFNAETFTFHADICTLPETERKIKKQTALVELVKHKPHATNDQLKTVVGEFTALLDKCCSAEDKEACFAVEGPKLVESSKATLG
The test is described as follows: competition ELISA (SA08b binding to rabbit albumin). (An ELISA detects its analyte on a solid surface through an enzyme-linked reagent.)

Molecule Ac-QGLIGDICLPRWGCLWGDSVK-NH2 (disulfide 8-14 (inferred)) [SA08] displayed an IC50 of 33 nM.
